Assays:
[1] = biological target: 自产IL-4Rα重组蛋白 (in-house human recombinant IL-4Rα, residues 26-232 of NP_000409.1, expressed in 293F cells) (human) (UniProt P24394); assay: indirect ELISA
[2] = biological target: 近岸购买的IL-4Rα重组蛋白 (IL-4Rα, Novoprotein, Cat#CS33) (human) (UniProt P24394); assay: indirect ELISA
[3] = biological target: IL-4Rα on TF-1 cells (human) (UniProt P24394); assay: cell-based or functional assay

Tab1 (dupilumab) (antibody)
EC50 [1]: 0.25 nM
EC50 [2]: 0.25 nM
EC50 of neutralisation of IL-4-induced TF-1 cell proliferation [3]: 0.18 nM
EC50 of neutralisation of IL-13-induced TF-1 cell proliferation [3]: 0.073 nM
